Assay results reported in article PMC4802085, “Haem-dependent dimerization of PGRMC1/Sigma-2 receptor facilitates cancer proliferation and chemoresistance” (Nature Communications, 2016).

Biological target: T1, purified EGFR (epidermal growth factor receptor) (human, UniProt P00533 25-1210)
T1 construct: epidermal growth factor receptor (EGFR), human, full length protein isolated from A431 cells; also called EGFR protein; source: bought: ENZO (BML-SE116), full length protein isolated from human A431 cells
Assay: co-IP; in vitro binding assay: 1 μg purified EGFR with 10 μg FLAG-PGRMC1 (a.a.44–195) treated with 50 μmol l^−1 haemin, anti-FLAG (M2) agarose; 20 mmol l^−1 HEPES-NaOH (pH 7.9), 100 mmol l^−1 NaCl, 0.2 mmol l^−1 EDTA, 10% glycerol, 0.1% NP40, room temperature
Conditions: both partners purified

B1: FLAG-PGRMC1 wild-type (a.a.44–195) (domain or fragment)
chain: not shown
notes: progesterone-receptor membrane component 1 (PGRMC1), human, cytosolic domain a.a.44–195; The cloning of the FLAG-tagged 44–195 construct is not described; probably made like the other a.a.44–195 proteins (pGEX6P-1, E. coli BL21 (DE3), GST cleaved); Used as apo form or treated with 50 μmol l^−1 haemin; also called FLAG-PGRMC1 wt (a.a.44–195); cytosolic domain of wild-type PGRMC1
  binding result: binds
